Measurements published in the RNAGym collection of RNA variant scans (doi:10.7554/elife.90254).

B1: OR4K15 (parent)
chain: GUUAACGGUCAUAGGCCAUGGAAACUAGGAGCACCAUUUCGCUGCCAGUGAAGAAAUGAACAAAGAAAAUCUGGGCCAGGCAGGCAUCAAAAGAAAUAGUCUUGCGCUCAACCAGAAAGUCUGUAAUCAUUUUAAGGGUA

Variants of: B1
Experiment: self-cleavage, relative activity (ratio to wild type); higher = more cleavage; in vitro, sequencing; the parent is a self-cleaving ribozyme

In order of falling self-cleavage:
1. GUUAACGGUCAUAGGCCAUGGAAACUAGGAGCACCCUUUCGCUGCCAGUGUAGAAAUGAACAAAGAAAAUCUGGGCCAGGCAGGCAUCAAAAGAAAUAGUCUUGCGCUCAACCAGAAAGUCUGUAAUCAUUUUAAGGGUA [A36C A51U]  2.34
2. GUUAACGGUCAUAGGCCAUGGAAACUAGGAGCACCAUUUCGCUGCCAGUGAAGAAAUGAACAAAGAAAAUCUGGGCCAGGCAGGCAUCAAAUGAAAUAGUCUUGCGCUCAACCAGAGAGUCUGUAAUCAUUUUAAGGGUA [A92U A117G]  2.08
3. GUUAACGGUCAUAGGCCAUGGAAACUAGGAGCACCAUUUCGCUGCCAAUGAAGAAAUGAACAAAGAAAAUCUGGGCCAGGCAGGCAUCAAAGGAAAUAGUCUUGCGCUCAACCAGAAAGUCUGUAAUCAUUUUAAGGGUA [G48A A92G]  2.02
4. GUUAACGGUCAUAGGCCAUGGAAUCUAGGAGCACCAUUUCGCUGCCAGUGAAGAAAUGAACAAAGAAAAUCUGGGCCAGGCAGGCAUCAAAAGAAAUAGUCUUGCGCUCAACCAGAAAGUCUGUAAUAAUUUUAAGGGUA [A24U C128A]  1.85
5. GUUAACGGUCAUAGGCCAUGGAAACUAGGAGCACCUUUUCGCUGCCAGUGAAGAAAUGAACAAAGAAAAUCUGGGCCAGGCAGGCAUCAAAAGAAGUAGUCUUGCGCUCAACCAGAAAGUCUGUAAUCAUUUUAAGGGUA [A36U A96G]  1.74
6. GUUAACGGUCAUAGGCCAUGGAAACUAGGAACACCAUUUCGCUGCCAGUGAAGAAAUGAACAAAGAAAAUCUGGGCCAGGCAGGCAUCAAAGGAAAUAGUCUUGCGCUCAACCAGAAAGUCUGUAAUCAUUUUAAGGGUA [G31A A92G]  1.57
7. GUUAACGGUCAUAGGCCAUGGAAACUAGGAGCACCAUUUCGCUGCCAGUGAAGAAAUGUACAAAGAAAAUCUGGGCCAGGCAGGCAUCAAUAGAAAUAGUCUUGCGCUCAACCAGAAAGUCUGUAAUCAUUUUAAGGGUA [A59U A91U]  1.44
8. GUUAACGGUCAUAGGCCAUGGAAACUAGGAGCACCAUUUCGCUGCCAGUGAAGAAAUGAGCAAAGAAAAUCUGGGCCAGGCAGGCAUCAAAAGAAAUAGUCCUGCGCUCAACCAGAAAGUCUGUAAUCAUUUUAAGGGUA [A60G U102C]  1.4
9. GUUAACGGUCAUAGGCCAUGGAAACUAGGAGCACCUUUUCGCUGCCAGUGAAGAAAUGAACAAAGAAAAUCUGGGCCAGGCAGGCAUCAAAAGAAAUAGUCUUGCGCUCAACCAGAAAGUCUGUAAUCAUUUUAAGGGUA [A36U]  1.38
10. GUUAACGGUCAUAGGCCAUGGAAACUAGGAGCACCAUUUCGCUGCCAGCGAAGAAAUGAACAAAGAAAAUCUGGGCCAGGCAGGCAUCCAAAGAAAUAGUCUUGCGCUCAACCAGAAAGUCUGUAAUCAUUUUAAGGGUA [U49C A89C]  1.36
11. GUUAACGGUCAUAGGCCAUGGAAACUGGGAGCACCAUUUCGCUGCCAGUGGAGAAAUGAACAAAGAAAAUCUGGGCCAGGCAGGCAUCAAAAGAAAUAGUCUUGCGCUCAACCAGAAAGUCUGUAAUCAUUUUAAGGGUA [A27G A51G]  1.3
12. GUUAACGGUCAUAGGCCAUGGAAACUAGGAGCACCAUUCCGCUGCCAGUGAAGAAAUGAACAAAGAAAAUCUGGGCCAGGCAGGCGUCAAAAGAAAUAGUCUUGCGCUCAACCAGAAAGUCUGUAAUCAUUUUAAGGGUA [U39C A86G]  1.19
13. GUUAACGGUCAUAGGCCAUGGAAACUAGGAGCACCAUUUCGCUGCCAGUGAAGAAAUGAACAAAGAAAAUCUGGGCCAGGCAGGCAUCAAAUGAAAUAGUCUUGCGCUCAACCAGAAAGUCUGUAAUCGUUUUAAGGGUA [A92U A129G]  1.13
14. GUUAACGGUCGUAGGCCAUGGAAACUAGGAGCACCAUUUCGCUGCCAGUGAAGAAAUGAACAAAGAAGAUCUGGGCCAGGCAGGCAUCAAAAGAAAUAGUCUUGCGCUCAACCAGAAAGUCUGUAAUCAUUUUAAGGGUA [A11G A68G]  1.13
15. GUUAACGGUCAUAGGCCAUGGAAACUAGGAGCACCAUUUCGCUGCCAGUGAAGAAAUGAACAAAGAAAAUCUGGGCCAGGCAGGCAUCAAAAGAAAUAGUCUUGCGCUCAACCAGAAUGUCAGUAAUCAUUUUAAGGGUA [A118U U122A]  1.08
16. GUUAACGGUCAUAGGCCAUGGAAACUAGGAGCACCACUUCGCUGCCAGUGAAGAAAUGCACAAAGAAAAUCUGGGCCAGGCAGGCAUCAAAAGAAAUAGUCUUGCGCUCAACCAGAAAGUCUGUAAUCAUUUUAAGGGUA [U37C A59C]  1.08
17. GUUAACGGUCAUAGGCCAUGGAAACUAGGAGCACCAUUUCGCUGCCAGUGAAGAAAUGAACAAAGAAAAUCUGGGCCAGGCAGGCAUCAAAAGAAAUAGCCUUGCGCUCAACCAGAAAGUCUGUAAUCAUUAUAAGGGUA [U100C U132A]  1.03
18. GUUAACGGUCAUAGGCCAUGGAAACUAGGAGCACCAUUUCGUUGCCAGUGAAGAAAUGAACAAAGAAAAUCUGGGCCAGGCAGGCAUCAAAAGAAAUAGUCUUGCGCUCAACCAGAAAGUCUGUAACCAUUUUAAGGGUA [C42U U127C]  0.99
19. GUUAACGGUCAUAGGCCAUGGAAACUAGGAGCACCAUAUCGCUGCCAGUGAAGAAAUGAACAAAGAGAAUCUGGGCCAGGCAGGCAUCAAAAGAAAUAGUCUUGCGCUCAACCAGAAAGUCUGUAAUCAUUUUAAGGGUA [U38A A67G]  0.89
20. GUUAACGGUCAUAGGCCAUGGUAACUAGGAGCACCAUUUCGCUGCCAGUGAAGAAACGAACAAAGAAAAUCUGGGCCAGGCAGGCAUCAAAAGAAAUAGUCUUGCGCUCAACCAGAAAGUCUGUAAUCAUUUUAAGGGUA [A22U U57C]  0.84
21. GUUAACGGUCAUAGGCCAUGGAAACUAGGAGCACCAUUUCGCUGCCAGUGAAGAAAUGAACAAAGAAAAUCUGGGCCAGGCAGGCAUCAAAAGAAAUAGUCUUGCGCUCAACCAGAAAGUCUGUAGCCAUUUUAAGGGUA [A126G U127C]  0.83
22. GUUAUCGGUCAUAGGCCAUGGAAACUAGGAGCGCCAUUUCGCUGCCAGUGAAGAAAUGAACAAAGAAAAUCUGGGCCAGGCAGGCAUCAAAAGAAAUAGUCUUGCGCUCAACCAGAAAGUCUGUAAUCAUUUUAAGGGUA [A5U A33G]  0.69
23. GUUAACGGUCAUAGGCCAUGGAAACUAGGAGCACCACUUCGCUGCCAGUGAAGAAAUGAACAAAGAAAAUCUGGGCCAGGCAGGCAUCAAAAGAAAUAGUCUUGCGCUCAACCAGAAAGUCUGUGAUCAUUUUAAGGGUA [U37C A125G]  0.68
24. GUUAACUGUCAUAGGCCAUGGAAACUAGGAGCACCAUUUCGCUGCCAGUGAAGAAAUGAACAAAGAAAAUCUGGGCCAGGCAGGCAUCAAAAGAAAUAGUCUCGCGCUCAACCAGAAAGUCUGUAAUCAUUUUAAGGGUA [G7U U103C]  0.65
25. GUUAACGGUCAUAGGCCAUGGAAACUAGGAGCACCAUUUCGCUGCCAGUGAAGAAAUGAACAAAGAAAAUCUGGGCCAGGCAGGCAUCAAAAGAAAUAGUCUUGCGCUCAACCAGGAAGUCUGUAAUCAUUUUGAGGGUA [A116G A134G]  0.59
26. GUUAACGGUCAUAGGCCAUGGAAACUAGGAGCACCAUUUCGCUGCCAGUGAAGAAAUGAACAAAGAAAAUCUGGGCCAGGCGGGCAUCAAAAGAAAUAGUCUUGCGCUCAACCAGAAAGUCUGUAAUCAUUUUAGGGGUA [A82G A135G]  0.58
27. GUUAACGGUCAUAGGCCAUGGAAACUAGGAGCACCAUUUCGCUGCCUGUGAAGAAAUGAACAAAGAAAAUCUGGGCCAGGCAGGCAUCAAAAGAAAUAGUCUUGCGCUCAACCAGAAAGUCUGUAAUCAUUAUAAGGGUA [A47U U132A]  0.51
28. GUUAACGGUCAUAGGCCAUGGAAACUAGGAGCACCAUUUCGCUGCCAGUGAAGAAAUGAACAAAGAAAAUCUGGGCCAGGUAGGCAUCAAAAGAAAUAGUCUUGCGCUCAACCAGAAAGUCUGUAAUCAUCUUAAGGGUA [C81U U131C]  0.37
29. GUUAACGGUCAUAGGCCAUGGAAACUAGGAGCACCAUUUCGCUGCCAGUGAAGUAAUGAACAAAGAAAAUCUGGGCCCGGCAGGCAUCAAAAGAAAUAGUCUUGCGCUCAACCAGAAAGUCUGUAAUCAUUUUAAGGGUA [A54U A78C]  0.29
30. GUUAAAGGUCAUAGGCCAUGGAAACUAGGAGCACCAUUUCGCUGCCAGUGAAGAAAUGAACAAAGAAAAUCUGGGCCAGGCAGGCAUCAAAAGAAAUAGUCUUGCGCUCAACCAGAAAGUCCGUAAUCAUUUUAAGGGUA [C6A U122C]  0.29
31. GUUAACGGUCAUAGGCCAUGGAAACUAGGAGCACCAUUUCGCUGCCAGUGAAGAAAUGAACAAAGAAAAUCUGGGCCAGGCAGGCAUCAAAAGAAAUAGUCUUGCGCUCAACCAGUAAGUCUGUAAUCUUUUUAAGGGUA [A116U A129U]  0.29
32. GUUAACGGUCAUAGGCCAUGGAAACUAGGAGCACCAUUUCGCUGCCAGUGAAGAAAUGAACAAUGAAAAUCUGGGCCAGGCAGGCAUCAAAAGAAAUAGACUUGCGCUCAACCAGAAAGUCUGUAAUCAUUUUAAGGGUA [A64U U100A]  0.29
33. GUUAACGGUCAUAGGCCAUGGAAACUAGGAGCACCAUUUCGCUGCCAGUGAAGAAAUGAACAAAGUAAAUCAGGGCCAGGCAGGCAUCAAAAGAAAUAGUCUUGCGCUCAACCAGAAAGUCUGUAAUCAUUUUAAGGGUA [A66U U72A]  0.2
34. GUUAACGGUCAUAGGCCAUGGAAACUAGGAGCACCAUUUCGCUGCCAGUGAAGAAAUGAACAAAGAAAAUCUGGGCCAGGCAGGCAUCAAAAGAAAUAGCCUUGCGCUCAUCCAGAAAGUCUGUAAUCAUUUUAAGGGUA [U100C A111U]  0.18
35. GUUAACGGUCAUAGGCCAUGGAAACUAGGAGCACUAUUUCGCUGCCAGUGAAGAAAUGAACAAAGAAAAUCUGGGCCAGGCAGGCAUCAAAAGAAAUAGUCUUGCGCUCGACCAGAAAGUCUGUAAUCAUUUUAAGGGUA [C35U A110G]  0.14
36. GUUAACGGUCAUAGGCCAUGGAAACUAGGAGCACCAUUUCGCUGCCAGUGAAGAAAUGAACAAAGAAAGUCUGGGCCAGGCAGGCAUCAAAAGAAAUAGUCUUGCGCUCAACCAGUAAGUCUGUAAUCAUUUUAAGGGUA [A69G A116U]  0.12
37. GUUAACGGUCAUAGGCCAUGGAAACUAGGAGCACCAUUUCGCUGCCAGUGAAGAAAUGAACAAAGAAAAUCUGGGCCAGGCAGGCAUCAAAAGAAAUAGUCUUGCGCUCGACCAGAAAGUCUGUAAUCGUUUUAAGGGUA [A110G A129G]  0.11
38. GUUAACGGUCAUAGGCCAUGGAAACUAGGAGCACCAUUUCGCUGCCAGUGAAGAAAUGAACAAAGAAAAUCUGGGCCAGGCCGGCAUCAAAAGAAAUGGUCUUGCGCUCAACCAGAAAGUCUGUAAUCAUUUUAAGGGUA [A82C A98G]  0.09
39. GCUAACGGUCAUAGGCCAUGGAAACUAGGAGCACCAUUUCGCUGCCAGUGAAGAAAUGAACAAAGAAAAUCUGGGCCAGGCAGGCAUCAAAAGAAAUAGUCUUGCGCUCAACCUGAAAGUCUGUAAUCAUUUUAAGGGUA [U2C A114U]  0.09
40. GUUAACGGUCAUAGGCCACGGAAACUAGGAGCACCAUUUCGCUGCCAGUGAAGAAAUGAACAAAGAAAAUCUGGGCCAGGCAGGCAUCAAAAGAAAUAGUCUUGCGCUCAGCCAGAAAGUCUGUAAUCAUUUUAAGGGUA [U19C A111G]  0.03
41. GUUAACGGUCAUAGGCCAUGGAAACUAGGAGCACCAUUCCGCUGCCAGUGAAGAAAUGAACAAAGAAAAUCUGGGCCAGGCAGGCAUCAAAAGAAAUAGUCUUGCGCCCAACCAGAAAGUCUGUAAUCAUUUUAAGGGUA [U39C U108C]  0.02
